From patent US20110091477A1 (Genentech, published 2011)

T1: matriptase (UniProt Q9Y5Y6 615-855, limits assumed)
T1 sequence (looked up): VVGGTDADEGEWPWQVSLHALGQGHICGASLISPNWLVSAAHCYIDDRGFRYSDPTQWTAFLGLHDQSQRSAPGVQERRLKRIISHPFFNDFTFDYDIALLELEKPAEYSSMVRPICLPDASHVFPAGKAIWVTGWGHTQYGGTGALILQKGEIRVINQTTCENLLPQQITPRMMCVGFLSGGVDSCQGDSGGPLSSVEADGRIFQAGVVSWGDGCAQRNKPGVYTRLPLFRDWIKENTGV

T2: HGFA (Val373-Ser655) (human, UniProt Q04756 373-655)
T2 construct: a tag is not described; also called human HGFA
T2 sequence: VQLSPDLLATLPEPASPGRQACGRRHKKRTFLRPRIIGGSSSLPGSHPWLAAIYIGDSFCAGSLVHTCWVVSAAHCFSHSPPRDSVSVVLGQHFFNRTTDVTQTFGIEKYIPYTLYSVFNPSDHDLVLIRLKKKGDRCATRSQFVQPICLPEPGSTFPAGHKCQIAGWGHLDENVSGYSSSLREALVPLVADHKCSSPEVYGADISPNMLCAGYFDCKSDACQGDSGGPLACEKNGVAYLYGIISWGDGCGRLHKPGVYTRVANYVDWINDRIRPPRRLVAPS

T3: factor XIIa (UniProt P00748 20-615, limits assumed)
T3 construct: also called FXIIa; coagulation factor XIIa
T3 sequence (looked up): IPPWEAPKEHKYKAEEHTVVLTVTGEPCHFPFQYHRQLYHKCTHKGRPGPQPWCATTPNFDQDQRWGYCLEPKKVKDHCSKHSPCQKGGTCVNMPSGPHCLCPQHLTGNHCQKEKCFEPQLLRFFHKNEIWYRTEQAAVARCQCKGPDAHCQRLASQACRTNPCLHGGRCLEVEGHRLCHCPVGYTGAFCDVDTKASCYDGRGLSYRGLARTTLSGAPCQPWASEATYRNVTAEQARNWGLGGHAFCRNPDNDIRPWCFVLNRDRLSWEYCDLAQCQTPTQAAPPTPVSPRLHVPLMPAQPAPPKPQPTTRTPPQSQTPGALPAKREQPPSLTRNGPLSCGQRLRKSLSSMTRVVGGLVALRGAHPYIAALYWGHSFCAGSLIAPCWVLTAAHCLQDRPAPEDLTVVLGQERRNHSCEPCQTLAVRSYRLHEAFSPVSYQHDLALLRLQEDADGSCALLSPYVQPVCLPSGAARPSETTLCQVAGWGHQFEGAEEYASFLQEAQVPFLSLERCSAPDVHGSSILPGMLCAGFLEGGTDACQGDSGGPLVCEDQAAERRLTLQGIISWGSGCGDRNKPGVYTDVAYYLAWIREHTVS


How the values were obtained:
[1] = target: urokinase-type plasminogen activator (UniProt P00749 21-431, limits assumed); test: direct binding ELISA on coated urokinase, anti-human antibody HRP conjugate, OD 450 nm
Experimental: (§1) FIG. 9: (a) Antibody specificity. In a direct binding ELISA, 96-well plates were coated with […] of HGFA, matriptase (Kirchhofer et al. (2003) J Biol Chem 278:36341-36349), urokinase (American Diagnostica), or factor XIIa (American Diagnostica) and incubated with […] of anti-HGFA antibodies in PBS, 0.05% (v/v) Tween-20 (PBT) buffer. After washing, bound antibodies were detected by addition of anti-human antibody HRP conjugate (diluted 1:2,500 in PBT buffer) and TMB substrate. Absorbance at 450 nm was measured on a microplate reader.
(§2) Competition HGFA binding ELISA experiments: For binding specificity measurements, 96-well Maxisorp plates were coated with 2 μg/ml of HGFA, matriptase, urokinase-type plasminogen activator or factor XIIa and incubated with 10 μg/ml of anti-HGFA IgG in PBST buffer for at least 1 hour at room temperature. The plates were washed with PBT buffer and bound antibodies were detected with anti-human antibody HRP conjugate diluted 1:2500 in PBST buffer, developed with TMB substrate for approximately 5 minutes, quenched with 1 M H₃PO₄, and absorbance was measured on a microplate reader at 450 nm.

[2] = target: T1, matriptase; test: direct binding ELISA on coated matriptase, anti-human antibody HRP conjugate, OD 450 nm
Experimental: as §1, §2

[3] = target: T2, HGFA (Val373-Ser655); test: SPR (BIAcore 3000), IgG captured on anti-human IgG, HGFA injected, 25 C
From the text: (§3) Antibody reformatting and determination of dissociation rate constants to HGFA: Anti-HGFA Fabs were reformatted into human IgG1 by cloning the VL and VH regions of individual clones into LPG3 and LPG4 vector, respectively (Liang et al, 2007). The full-length antibodies were transiently expressed in Chinese Hamster Ovary cells and purified on a protein-A column. To determine binding affinities of the reformatted anti-HGFA antibodies, surface plasmon resonance measurements on a BIAcore™-3000 instrument (GE Health Care, NJ) were performed. Rabbit anti-human IgG were chemically immobilized (amine coupling) on CM5 biosensor chips and the anti-HGFA antibodies were captured to give approximately 250 response units (RU). For kinetics measurements, two-fold serial dilutions of HGFA or active site-blocked HGFA (0.9 nM to 250 nM) were injected in PBT buffer at 25° C. with a flow rate of 30 μl/min. HGFA-KQLR (“KQLR” disclosed as SEQ ID NO: 10) was produced by incubating HGFA with two fold molar excess of Ac-KQLR-cmk (“KQLR” disclosed as SEQ ID NO: 10) for 2 hours at room temperature, followed by size exclusion chromatography to remove non-incorporated Ac-KQLR-cmk (“KQLR” disclosed as SEQ ID NO: 10). Association rates (kₒₙ) and dissociation rates (koff) were obtained by using a simple one-to-one Langmuir binding model (BIAEvaluation) and the equilibrium dissociation constants (KD) were calculated (koff/kₒₙ). Longer injection (5 min) of 2-fold serial dilution of HGFA or HGFA-KQLR (“KQLR” disclosed as SEQ ID NO: 10) (1.5 nM to 3000 nM) over captured antibody (Ab40.ΔTrp) sensor chip was implemented to achieve maximal binding (Rₘₐₓ) and reach the steady state.

[4] = target: T3, factor XIIa; test: direct binding ELISA on coated factor XIIa, anti-human antibody HRP conjugate, OD 450 nm
Experimental: as §1, §2

[5] = target: T2, HGFA (Val373-Ser655); test: SPR (BIAcore 3000), steady state affinity, IgG captured, HGFA injected
From the text: (§4) Antibody reformatting and determination of dissociation rate constants to HGFA: Anti-HGFA Fabs were reformatted into human IgG1 by cloning the VL and VH regions of individual clones into LPG3 and LPG4 vector, respectively (Liang et al, 2007). The full-length antibodies were transiently expressed in Chinese Hamster Ovary cells and purified on a protein-A column. To determine binding affinities of the reformatted anti-HGFA antibodies, surface plasmon resonance measurements on a BIAcore™-3000 instrument (GE Health Care, NJ) were performed. Rabbit anti-human IgG were chemically immobilized (amine coupling) on CM5 biosensor chips and the anti-HGFA antibodies were captured to give approximately 250 response units (RU). For kinetics measurements, two-fold serial dilutions of HGFA or active site-blocked HGFA (0.9 nM to 250 nM) were injected in PBT buffer at 25° C. with a flow rate of 30 μl/min. […] Association rates (kₒₙ) and dissociation rates (koff) were obtained by using a simple one-to-one Langmuir binding model (BIAEvaluation) and the equilibrium dissociation constants (KD) were calculated (koff/kₒₙ). […]

[6] = target: T4, HGFA-KQLR complex (human, UniProt Q04756 373-655, N-terminal acetyl; C-terminal chloromethyl ketone, reacted with Ser195 and His57 of HGFA; active-site Ser195 and His57 (chymotrypsinogen numbering) covalently linked to Ac-KQLR-cmk); test: SPR (BIAcore 3000), steady state affinity, IgG captured, HGFA-KQLR complex injected
From the text: as §4

[7] = target: T4, HGFA-KQLR complex; test: SPR (BIAcore 3000), IgG captured on anti-human IgG, HGFA-KQLR complex injected, 25 C
From the text: as §3

[8] = target: T2, HGFA (Val373-Ser655); test: competition ELISA: coated HGFA incubated with increasing Ab40, then 1 nM biotinylated KD1, detected with streptavidin-HRP; blocked ligand KD1; inhibition partial
From the text: FIG. 3: Effects of active site inhibitors on antibody binding to HGFA. (a-b, e-f) Surface plasmon resonance (BIAcore) measurements of binding to immobilized antibodies, Ab40 (a-b) or Ab40.ΔTrp (e-f), after co-injection of HGFA (a,e) or HGFA-KQLR (b, f) complex (“KQLR” disclosed as SEQ ID NO: 10). (c) Competition binding (BIAcore) of HGFA to immobilized Ab40 in presence of different concentrations of KD1. (d) Competition binding ELISA measuring binding of HGFA to biotinylated KD1 in the presence of increasing antibody concentrations.
HGFA purification, enzymatic kinetic assays and competition ELISA: HGFA (Val373-Ser655) was produced by use of a baculovirus—insect cell expression system and purified on a Ni-NTA-agarose column, followed by size exclusion chromatography as described (Kirchhofer et al, 2003). […] After addition of S-2266 (0.24 mM˜Kₘ) the linear rates of the increase in absorbance at 405 nm were measured on a kinetic microplate reader (Spectramax-M5, Molecular devices, Sunnyvale, Calif.). […] Various concentrations of Chromogenix S-2266 were added and the linear rates of absorbance increase at 405 nm were measured. […] Biotinylated KD1 that was bound to HGFA was detected by streptavidin-HRP conjugates.

[9] = target: T4, HGFA-KQLR complex; test: SPR
From the text: as §4

[10] = target: T2, HGFA (Val373-Ser655); test: SPR
From the text: as §4

binding result [1] | binding result [2] | Kd [3] [nM] | koff [3] [s⁻¹] | kon [3] [M⁻¹ s⁻¹] | binding result [4] | Kd [5] [nM] | Kd [6] [nM] | Kd [7] [nM] | koff [7] [s⁻¹] | kon [7] [M⁻¹ s⁻¹] | IC50 (read off the curve) [8] [nM] | fold decrease in affinity compared to HGFA [9] [fold] | fold improvement in binding affinity over Ab39 [10] [fold] | Binder
no binding | no binding | 10.3 | 0.0053 | 520000 | no binding |  |  |  |  |  |  |  |  | Ab39 (antibody, V domains shown, also called parental Ab39; anti-HGFA antibody Ab39) VH: EVQLVESGGGLVQPGGSLRLSCAASGFTFNGTYIHWVRQAPGKGLEWVGGIYPAGGATYYADSVKGRFTISRDNSKNTLYLQMNSLRAEDTAVYYCAKWWAWPAFDYWGQGTLVTVSS VL: DIQMTQSPSSLSASVGDRVTITCRASQDVSTAVAWYQQKPGKAPKLLIYSASFLYSGVPSRFSGSGSGTDFTLTISSLQPEDFATYYCQQSYTTPPTFGQGTKVEIKR
 |  |  |  |  |  | 150 | 161 |  |  |  |  |  |  | Ab40.ΔTrp (antibody, V domains shown, also called Trp96H-deletion mutant of Ab40) VH: EVQLVESGGGLVQPGGSLRLSCAASGFTFNGTYIHWVRQAPGKGLEWVGGIYPAGGATYYADSVKGRFTISRDNSKNTLYLQMNSLRAEDTAVYYCAKWAWPAFDYWGQGTLVTVSS VL: DIQMTQSPSSLSASVGDRVTITCRASQDVSTAVAWYQQKPGKAPKLLIYSASFLYSGVPSRFSGSGSGTDFTLTISSLQPEDFATYYCQQSNRAPATFGQGTKVEIKR
no binding | no binding | 0.16 | 0.000175 | 1.08e+06 | no binding |  |  | 1.35 | 0.00043 | 320000 | ~1 | 8 | 64 | Ab40 (antibody, V domains shown, also called anti-HGFA antibody Ab40) VH: EVQLVESGGGLVQPGGSLRLSCAASGFTFNGTYIHWVRQAPGKGLEWVGGIYPAGGATYYADSVKGRFTISRDNSKNTLYLQMNSLRAEDTAVYYCAKWWAWPAFDYWGQGTLVTVSS VL: DIQMTQSPSSLSASVGDRVTITCRASQDVSTAVAWYQQKPGKAPKLLIYSASFLYSGVPSRFSGSGSGTDFTLTISSLQPEDFATYYCQQSNRAPATFGQGTKVEIKR
